The source of these data is patent US20250197510A1 (published 2025).

The test deals with T1, FLT3 on Nalm16 cells (human, UniProt P36888 27-993).
T1 construct: whole, on cells; Also used for FLT3 on primary leukemic cells of patients in the functional rows; also called NALM16 (FLT3+); FLT3 on leukemic cells
T1 sequence (looked up): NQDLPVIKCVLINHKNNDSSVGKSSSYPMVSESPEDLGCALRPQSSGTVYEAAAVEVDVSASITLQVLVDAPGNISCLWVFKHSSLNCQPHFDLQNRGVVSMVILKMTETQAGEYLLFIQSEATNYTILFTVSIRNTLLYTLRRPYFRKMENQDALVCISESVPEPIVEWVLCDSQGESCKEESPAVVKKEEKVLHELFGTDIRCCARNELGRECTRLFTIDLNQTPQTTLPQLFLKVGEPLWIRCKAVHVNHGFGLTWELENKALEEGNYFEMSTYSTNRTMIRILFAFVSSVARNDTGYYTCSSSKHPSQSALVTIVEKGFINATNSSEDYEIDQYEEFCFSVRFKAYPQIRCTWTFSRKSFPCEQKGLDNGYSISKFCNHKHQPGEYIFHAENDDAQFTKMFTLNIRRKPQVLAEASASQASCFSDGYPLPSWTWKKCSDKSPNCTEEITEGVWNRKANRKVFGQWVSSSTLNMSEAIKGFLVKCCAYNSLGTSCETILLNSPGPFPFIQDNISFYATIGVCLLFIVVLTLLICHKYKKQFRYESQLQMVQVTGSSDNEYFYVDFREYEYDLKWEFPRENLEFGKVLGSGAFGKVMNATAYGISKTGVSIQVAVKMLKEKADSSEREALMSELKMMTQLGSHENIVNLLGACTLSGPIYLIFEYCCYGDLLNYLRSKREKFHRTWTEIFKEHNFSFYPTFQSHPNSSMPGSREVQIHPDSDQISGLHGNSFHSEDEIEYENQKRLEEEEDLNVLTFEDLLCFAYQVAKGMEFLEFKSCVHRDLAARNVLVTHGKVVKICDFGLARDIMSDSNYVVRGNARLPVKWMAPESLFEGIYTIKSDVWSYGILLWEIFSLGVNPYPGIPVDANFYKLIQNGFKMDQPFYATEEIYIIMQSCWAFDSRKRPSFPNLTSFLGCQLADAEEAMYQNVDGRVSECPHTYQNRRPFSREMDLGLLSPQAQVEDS
The experiment in a line: flow cytometry on NALM16 (FLT3+) cells, PE-conjugated anti human Fcγ secondary antibody. The method, then:
In addition, antibody binding affinity was also tested using binding of the antibody to its target(s) as expressed on cells. Analyzed is the binding of CC-2 variants to Nalm16 cells expressing FLT3 (FIG. 4) or Jurkat cells expressing CD3 (FIG. 6). Variants V1 to V9 (with V6 being V6-V6) were produced after transient transfection of CHO cells using the insert sequences listed above. The antibodies were purified by protein A affinity-and size exclusion-chromatography. […] To measure antibody binding to FLT3 and CD3 NALM16 (FLT3+) and Jurkat (CD3+) cells were incubated with the respective variants for 30 min, washed, stained with a goat anti human Fcγ-specific and PE-conjugated secondary antibody (Jackson Immuno Research), washed again and analyzed by flow cytometry (FACSCalibur, BD Biosciences).
A general note: A flow cytometer gives signals particle by particle.

B1: V6-V6 (bispecific antibody, human IgG1, kappa)
heavy: QVQLQQPGAELVKPGASLKLSCKSSGYTFTSYWMHWVRQRPGHGLEWIGEIDPSDSYKDYNQKFKDKATLTVDRSSNTAYMHLSSLTSDDSAVYYCARAITTTPFDFWGQGTTLTVSSASTKGPSVFPLAPSSKSTSGGTAALGCLVKDYFPEPVTVSWNSGALTSGVHTFPAVLQSSGLYSLSSVVTVPSSSLGTQTYICNVNHKPSNTKVDKKVEPKSCDKTHTCPPCPAPPVAGPSVFLFPPKPKDTLMISRTPEVTCVVVGVSHEDPEVKFNWYVDGVEVHNAKTKPREEQYNSTYRVVSVLTVLHQDWLNGKEYKCKVSNKQLPSPIEKTISKAKGQPREPQVYTLPPSRDELTKNQVSLTCLVKGFYPSDIAVEWESNGQPENNYKTTPPVLDSDGSFFLYSKLTVDKSRWQQGNVFSCSVMHEALHNHYTQKSLSLSPGKSGDIQMTQSPSSLSASVGDRVTITCRASQDIRNYLNWYQQKPGKAPKLLIYYTSRLESGVPSRFSGSGSGTDYTLTISSLQPEDFATYYCQQGNTLPWTFGQGTKVEIKGGGGSGGGGSGGGGSEVQLVESGGGLVQPGGSLRLSCAASGYSFTGYTMNWVRQAPGKGLEWVALINPYKGVSTYNQKFKDRFTISVDKSKNTAYLQMNSLRAEDTAVYYCARSGYYGDSDWYFDVWGQGTLVTVSS
light: DIVLTQSPATLSVTPGDSVSLSCRASQSISNNLHWYQQKSHESPRLLIKYASQSISGIPSRFSGSGSGTDFTLSINSVETEDFGVYFCQQSNTWPYTFGGGTKLEIKRTVAAPSVFIFPPSDEQLKSGTASVVCLLNNFYPREAKVQWKVDNALQSGNSQESVTEQDSKDSTYSLSSTLTLSKADYEKHKVYACEVTHQGLSSPVTKSFNRGEC
notes: also called CC-2; FLT3 (4G8) x CD3 (humanized hUCHT1) bispecific IgGsc
Broadly, the EC50 is the concentration that produces a half-maximal response. The low end stands for a more potent agent, the high end for a less potent agent. As for B1, the EC50 was about 1 nM.
